# According to the supplement of paper PMC9170038:
# Test system: MS2 coat protein
# Experiment: apparent KD of MS2 coat protein; designed switch direction (-1 OFF switch, 1 ON switch): 1; higher = weaker reporter binding
# In short: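 Each step of the titration lasted 0.8–1.5 h at the lowest concentration and 10–20 min at the highest. The protein, SNAP-549-labelled MS2 coat protein, went from 0.7 or 1.5 nM doubling to 3 µM over RNA switches transcribed on Illumina chips by stalled E. coli RNA polymerase. Normalised cluster fluorescence was curve-fitted, and the per-design median over clusters is given as apparent KD.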
# [1] = input ligand: microRNA oligo, concentration not stated
# [2] = Eterna round: R95, input ligand: microRNA oligo, concentration not stated
# [3] = Eterna round: R95, input ligand: FMN 200 uM
# [4] = Eterna round: R95, input ligand: none
Sequence,apparent KD of MS2 coat protein (input ligand: FMN 200 uM),apparent KD of MS2 coat protein [1],apparent KD of MS2 coat protein (input ligand: none),apparent KD of MS2 coat protein [2],apparent KD of MS2 coat protein [3],apparent KD of MS2 coat protein [4]
"GCUAGAAAUAAAGCCAACAUGAGGAUCACCCAUGUAUGUUGGCAGGAUAUCGUAUGCAAAGCAUACGAGAAGGGCUAAACUAGC [Mat - Same State NG 3 - JL Mod - D6] (Eterna round: R96, puzzle: Same State NG 3)",129 nM,149 nM,201 nM,,,
"UGAAGAUCCAUAGGAUAUCCGACACAUGAGGAUCACCCAUGUCAACCAAACGCAGCUUCGGCCGUGGAGAAGGAUGGAGCUGUG [Eternabot solution 3] (Eterna round: R96, puzzle: Same State NG 2)",72.4 nM,41.5 nM,76.4 nM,,,
"GCUAGAAAUAAAGCCAACAUGAGGAUCACCCAUGUAUGUUGGUAGGAUAUCGUUUGCAAAGCAAACGAGAAGGGCCAAACUAGC [Mat - Same State NG 3 - JL Mod - D20] (Eterna round: R96, puzzle: Same State NG 3)",86.5 nM,104 nM,137 nM,,,
GAUUAACAUGAGGAUCACCCAUGUCGUUAAAUGGGAGGAUAUACGUGGACCGUAGUCCGCGUAGAAGGCCUAAUUG [Mat - Same State 1 - Mod of JL - D22] (puzzle: Same State 1),,,,101 nM,,
"GGUGCCAAUAAAGCCUACAUGAGGAUCACCCAUGUAUGUAGGUAGGAUAUCGUUUGCUUUGCAAACGAGAAGGGCCUAGGCACC [JL SSNG3 1.20] (Eterna round: R96, puzzle: Same State NG 3)",22.5 nM,40.2 nM,48.3 nM,,,
"AUCAAAAGAGGAGGAUAUGCAGAGGAUCACCCUGUAGAAGGCCACAGAGGAGGAUAUGCAGAGGAUCACCCUGUAGAAGGCCUC [pwkr ssNG DX.16] (Eterna round: R96, puzzle: Same State NG 1)",37.3 nM,156 nM,189 nM,,,
"AUGCCAAAUGGAGGAUAUGGAGCCUUAUUGGCUCCAGAAGGUCAGACAUGAGGAUCACCCAUGUGGCAGUGGUCUAAUGACCAC [Eli NG1ss - 39] (Eterna round: R96, puzzle: Same State NG 1)",126 nM,392 nM,638 nM,,,
"ACAUGAGAGUUAGGAUAUCUUGUACCUACAUGUGACAUGAGGAUCACCCAUGUGGUAAGUAUGACAGAGAAGGAACAGAUAUGU [Equivalance 69 - Jieux - Same State NG 2] (Eterna round: R96, puzzle: Same State NG 2)",36.2 nM,50.2 nM,91.1 nM,,,
"UUACUCAUGUAAGGAUAUGCAGCCGUUUCGGCUGCAGAAGGUACUAUAAUACAUGAGGAUCACCCAUGUCUCUAUUAUUUAGUU [JL SSNG1 1.43] (Eterna round: R96, puzzle: Same State NG 1)",151 nM,39.6 nM,52.7 nM,,,
"UAAAAACAUGAGGAUCACCCAUGUGAAAAUAUGGGAGGAUAUACAAAGACGAGAGUCAAAGUAGAAGGCCUAAAAU [Mat - Same State 1 - Eli mod - D88] (Eterna round: R96, puzzle: Same State 1)",21.9 nM,68.3 nM,86.6 nM,,,
UGUCCAGCCUGAGCUGGACAAAAGCAUGUACAUGAGGAUCACCCAUGUUCAUGUACAAGCUUUUUGCUCGUCUUAGC [salish99_208a_r3_067] (puzzle: Sensor for hsa-mir-208a),,,,13.6 nM,624 nM,547 nM
"GGUAGGUUACUACCAAACAUGAGGAUCACCCAUGUAAAUGGGAAGGAUAUGGUACCUAUUUGGUACCAGAAGGUCUAAUUAAUU [JL Fiskers NG3ss - 2 mod 1] (Eterna round: R96, puzzle: Same State NG 3)",332 nM,479 nM,553 nM,,,
"UGGCUCAGAGCAGGAUAUAUGCGAUCACAUGAGGAUCACCCAUGUCUCGAGCUUCGGCUCGAGGCAUAGAAGGGCUCUGAGCCU [SSNG2/4-B3] (Eterna round: R96, puzzle: Same State NG 2)",14.9 nM,32.6 nM,45.5 nM,,,
CUCAAACAUGAGGAUCACCCAUGUGUUGUCAUGGGAGGAUAUCUAAGUUCAUUGUAUUCGGGAGAAGGCCUAUGUC [× ×•×ª×• ×ž×“×™× ×” × ×—×ª-09] (puzzle: Same State 1),,,,362 nM,,
"GCUCGAUGAGCGAUUUACAUGAGGAUCACCCAUGUACGUGGGCAGGAUAUUUACGUGCUUUGUGUAGAGAAGGGCCCAUCGAGC [SameState NG3 #72] (Eterna round: R96, puzzle: Same State NG 3)",107 nM,309 nM,546 nM,,,
"ACUAGAAGCGGGCAAUAACACAUGAGGAUCACCCAUGUGACACAGGAUAUAACCAGAUCAGAAAGUUAGAAGGGUGAGCCCGCA [Usatbere] (Eterna round: R96, puzzle: Same State NG 3)",13.2 nM,19.9 nM,27.4 nM,,,
AGCUGUGGAAAACUAUAGCAAAAGUAUGUACAUGAGGAUCACCCAUGUCAUGUACAAGCUUUUUGCUCGUCUUAAAA [ak 5 mod of one Eli's designs.] (puzzle: Sensor for hsa-mir-208a),,,,18.7 nM,42.4 nM,90.4 nM
UGAGCCGGCACUGAGGAUAUUCAUAAUAAAACAUGAGGAUCACCCAUGUAGGCCAGAAGGCCUUGGGAGAAGGCAGGUCGGCUCU [Mat - Same State 2 - Mod of UCT - D70] (puzzle: Same State 2),,,,142 nM,13.8 nM,292 nM
AGUCCAGCGAGAGCUGGACAAAAGCAUGUACAUGAGGAUCACCCAUGUCAUGUACAAGCUUUUUGCUCGUCUUAAAA [Mat - hsa-mir-208a - Mod of JL - D5] (puzzle: Sensor for hsa-mir-208a),,,,13.5 nM,332 nM,618 nM
AAAAUACAUGAGGAUCACCCAUGUCUAAAGAACGGAGGAUAUAGGCGUGCAAAACACGCACUAGAAGGCUGGGUGC [Eserus] (puzzle: Same State 1),,,,92.3 nM,144 nM,220 nM
"UCGAGCGUACUUGCAGACAUGAGGAUCACCCAUGUAAAUGGGAAGGAUAUGGUACCGUUUCGGUACCAGAAGGUCCUAAGUGUU [salish99_SSNG3_r04_303] (Eterna round: R96, puzzle: Same State NG 3)",616 nM,146 nM,493 nM,,,
"GGGAGAGGCGCAGGAUAUGGUGAGGAUUACCCACUAGAAGGGUGCACAUGAGAAUCGAACAUGAGGAUCACCCAUGUUCUGAGC (Eterna round: R96, puzzle: Same State NG 1)",189 nM,187 nM,230 nM,,,
UGUUAACAUGAGGAUCACCCAUGUCAAAUGAAUCGAGGAUAUGGUAAGUAAUAAGAUAAUCUAGAAGGCGAAGUUG [Altered State 1-23 - Jieux - Same State 1] (puzzle: Same State 1),,,,55.8 nM,42.6 nM,58 nM
GUUAAACAUGAGGAUCACCCAUGUAAUCAUAUGGGAGGAUAUGGGAAUUAAUUAAUUAAACCAGAAGGCCUAAUUG [Mat - Same State 1 - D83] (puzzle: Same State 1),,,,87.4 nM,19.6 nM,92.3 nM
AGAGAACAUGAGGAUCACCCAUGUGAGAGGGAUGUAGGAUAUGUAAGGAAGAAAGAAGGAACAGAAGGACAAAGAG [JR_SS!_Sub066] (puzzle: Same State 1),,,,78.5 nM,50.5 nM,70.7 nM
"AUCCUAAACACAGGAUAUCCCAGUCAUGAUCUGGGAGAAGGGUGGCCACAUGAGGAUCACCCAUGUGAAGUGCCAGAGGCACGA [MOD3 Xexeraed] (Eterna round: R96, puzzle: Same State NG 1)",397 nM,359 nM,582 nM,,,
"AUUGCUUACGCAGGAUAUGAUGCGAAAAUUGCGUCAGAAGGGUGAAGUGACUCGUUGCAACAGGACAUGAGGAUCACCCAUGUC [SameState NG1 #91] (Eterna round: R96, puzzle: Same State NG 1)",89 nM,127 nM,141 nM,,,
